Legend:
[1] = molecular target: T1, human TrkA on TF1 erythroleukemic cells (human, UniProt P04629 33-796); test: cell-based or functional assay
[2] = molecular target: T1, human TrkA on TF1 erythroleukemic cells; test: cell-based or functional assay; remark: listed apart in the source
[3] = molecular target: T1, human TrkA on TF1 erythroleukemic cells; test: cell-based or functional assay; remark: listed apart in the source
[4] = molecular target: T2, TrkA receptor immobilized on the Biacore chip (UniProt P04629 33-423, limits assumed); test: SPR, Biacore 3000; Table 4 column Binding affinity (nM), TrkA receptor
T2 sequence (P04629 33-423 limits assumed): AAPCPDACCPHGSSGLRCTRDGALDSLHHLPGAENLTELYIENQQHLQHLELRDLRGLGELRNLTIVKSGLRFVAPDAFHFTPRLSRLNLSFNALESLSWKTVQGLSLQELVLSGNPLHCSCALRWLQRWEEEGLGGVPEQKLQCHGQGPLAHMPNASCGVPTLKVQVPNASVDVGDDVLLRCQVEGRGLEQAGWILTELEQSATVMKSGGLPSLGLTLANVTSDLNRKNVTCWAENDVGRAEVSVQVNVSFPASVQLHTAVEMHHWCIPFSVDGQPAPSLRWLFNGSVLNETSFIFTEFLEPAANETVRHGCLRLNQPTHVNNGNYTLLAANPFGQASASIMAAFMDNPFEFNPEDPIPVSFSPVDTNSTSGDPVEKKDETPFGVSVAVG
Procedure: (§1) The binding experiments were performed on Biacore 3000 at 25° C. Receptors were directly immobilized by direct immobilization using EDC/NHS amine coupling kit and GE protocol. The receptor was coated until the desired RU. The unoccupied active sites on the chip were quenching by flowing 1 M ethanol amine. […] Data were analyzed using Biacore 3000 bia evaluation software (Biacore) using the values after reference subtraction. KD was determined by applying either local (for scouting) or global (full kinetics) 1:1 Langmuir fitting model. Full kinetics was performed with the range of analyte at a 2-fold serial dilution and flowed over the ligand from lowest to highest concentration range.

[5] = molecular target: T3, p75^NTR receptor immobilized on the Biacore chip (UniProt P08138 29-250); test: SPR, Biacore 3000; Table 4 column Binding affinity (nM), P75^NTR
T3 sequence (looked up): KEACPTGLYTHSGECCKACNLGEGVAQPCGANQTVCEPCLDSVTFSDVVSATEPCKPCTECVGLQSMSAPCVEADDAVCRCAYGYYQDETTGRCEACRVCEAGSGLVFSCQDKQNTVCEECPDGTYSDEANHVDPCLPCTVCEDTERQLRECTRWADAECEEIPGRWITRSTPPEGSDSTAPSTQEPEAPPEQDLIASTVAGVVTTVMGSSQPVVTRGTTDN
Procedure: as §1

[6] = molecular target: T2, TrkA receptor immobilized on the …; test: SPR, Biacore 3000, 25 C, receptor amine-coupled on chip, NGF mutein as analyte, 1:1 Langmuir
Procedure: as §1

[7] = molecular target: T2, TrkA receptor immobilized on the …; test: SPR, Biacore 3000; ratio of the affinity for TrkA over that for p75^NTR
Procedure: as §1

[8] = molecular target: T2, TrkA receptor immobilized on the …; test: SPR, Biacore 3000; against NGF wt
Procedure: as §1

[9] = molecular target: T3, p75^NTR receptor immobilized on the …; test: SPR, Biacore 3000; against NGF wt
Procedure: as §1

[10] = molecular target: T3, p75^NTR receptor immobilized on the …; test: SPR, Biacore 3000, 25 C, receptor amine-coupled on chip, NGF mutein as analyte
Procedure: as §1

T1 sequence (P04629 33-796): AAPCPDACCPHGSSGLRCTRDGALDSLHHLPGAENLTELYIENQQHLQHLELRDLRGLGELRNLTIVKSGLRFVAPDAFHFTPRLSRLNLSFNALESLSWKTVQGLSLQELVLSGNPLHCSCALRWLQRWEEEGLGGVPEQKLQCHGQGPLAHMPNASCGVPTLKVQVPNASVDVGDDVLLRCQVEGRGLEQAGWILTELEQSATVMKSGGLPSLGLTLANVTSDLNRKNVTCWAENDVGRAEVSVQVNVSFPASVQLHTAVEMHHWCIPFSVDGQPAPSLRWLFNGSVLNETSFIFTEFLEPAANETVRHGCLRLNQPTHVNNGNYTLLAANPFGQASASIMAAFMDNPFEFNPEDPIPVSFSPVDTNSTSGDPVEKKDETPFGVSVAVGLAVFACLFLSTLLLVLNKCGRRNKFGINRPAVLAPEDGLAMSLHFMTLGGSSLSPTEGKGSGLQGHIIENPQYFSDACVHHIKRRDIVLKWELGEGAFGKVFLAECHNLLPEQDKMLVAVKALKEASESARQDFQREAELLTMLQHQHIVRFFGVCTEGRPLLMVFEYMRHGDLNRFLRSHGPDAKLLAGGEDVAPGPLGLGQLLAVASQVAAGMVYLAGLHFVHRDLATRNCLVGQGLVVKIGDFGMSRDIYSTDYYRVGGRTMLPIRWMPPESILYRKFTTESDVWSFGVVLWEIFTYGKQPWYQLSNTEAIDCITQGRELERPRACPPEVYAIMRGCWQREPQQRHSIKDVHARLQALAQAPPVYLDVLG

B1: NGF K34A/R69A (ligand)
chain: SSSHPIFHRGEFSVCDSVSVWVGDKTTATDIKGAEVMVLGEVNINNSVFKQYFFETKCRDPNPVDSGCAGIDSKHWNSYCTTTHTFVKALTMDGKQAAWRFIRIDTACVCVLSRKAVRRA
For B1, the “EC50 in TF-1 proliferation assay, protein kept 7 days at 4° C.” value (“EC50 in TF-1 proliferation assay … at 4° C.” below) [1] was 9.13 ng/mL.

B2: NGF K34D/R69A/R100D (ligand)
chain: SSSHPIFHRGEFSVCDSVSVWVGDKTTATDIKGDEVMVLGEVNINNSVFKQYFFETKCRDPNPVDSGCAGIDSKHWNSYCTTTHTFVKALTMDGKQAAWDFIRIDTACVCVLSRKAVRRA
For B2, the “EC50 in TF-1 proliferation assay … at 4° C.” value [1] was 23 ng/mL.

B3: NGF K34A/R69A/R100E (ligand)
chain: SSSHPIFHRGEFSVCDSVSVWVGDKTTATDIKGAEVMVLGEVNINNSVFKQYFFETKCRDPNPVDSGCAGIDSKHWNSYCTTTHTFVKALTMDGKQAAWEFIRIDTACVCVLSRKAVRRA
For B3, the “EC50 in TF-1 proliferation assay … at 4° C.” value [1] was 689 ng/mL.

B4: NGF K34D/R100E (ligand)
chain: SSSHPIFHRGEFSVCDSVSVWVGDKTTATDIKGDEVMVLGEVNINNSVFKQYFFETKCRDPNPVDSGCRGIDSKHWNSYCTTTHTFVKALTMDGKQAAWEFIRIDTACVCVLSRKAVRRA
With B4 the “EC50 in TF-1 proliferation assay … at 4° C.” value [1] was 58.8 ng/mL.

B5: NGF K34D/R69A (ligand)
chain: SSSHPIFHRGEFSVCDSVSVWVGDKTTATDIKGDEVMVLGEVNINNSVFKQYFFETKCRDPNPVDSGCAGIDSKHWNSYCTTTHTFVKALTMDGKQAAWRFIRIDTACVCVLSRKAVRRA
In the case of B5, the “EC50 in TF-1 proliferation assay … at 4° C.” value [1] is reported as 12.3 ng/mL.

B6: NGF K34D/K32A (ligand)
chain: SSSHPIFHRGEFSVCDSVSVWVGDKTTATDIAGDEVMVLGEVNINNSVFKQYFFETKCRDPNPVDSGCRGIDSKHWNSYCTTTHTFVKALTMDGKQAAWRFIRIDTACVCVLSRKAVRRA
In the case of B6, the “EC50 in TF-1 proliferation assay, 4° C.” value [2] is reported as 1.91 ng/mL and the “EC50 in TF-1 proliferation assay, after storage at 55° C.” value [2] is reported as 9.7 ng/mL.

B7: NGF K34D/K32D (ligand)
chain: SSSHPIFHRGEFSVCDSVSVWVGDKTTATDIDGDEVMVLGEVNINNSVFKQYFFETKCRDPNPVDSGCRGIDSKHWNSYCTTTHTFVKALTMDGKQAAWRFIRIDTACVCVLSRKAVRRA
notes: Double mutein of mature human NGF; expressed in HEK293 cells; also called NGF34D/K32D; NGF34D/32 D
In the case of B7, the “TrkA receptor Bio-activity” value [3] is reported as 2.62 ng/mL, the Kd [4] is reported as 0.61 nM and the Kd [5] is reported as over 200 nM. For the same binder, the Kd [6] was 0.607 nM, the koff [6] was 0.00398 s⁻¹ and the kon [6] was 6.54e+06 M⁻¹ s⁻¹. For the same binder, the “Binding selectivity (TrkA/p75^NTR)” value [7] was over 328 fold, the “binding affinity, % of wildtype” value [8] was 5.9 % of wildtype and the “fold reduction of binding affinity against wildtype” value [8] was 18 fold. For the same binder, the “fold reduction of binding affinity against wildtype” value [9] was 625 fold, the “EC50 in TF-1 proliferation assay, 4° C.” value [2] was 2.62 ng/mL and the “EC50 in TF-1 proliferation assay, after storage at 55° C.” value [2] was 1.15 ng/mL. It also gave a Kd [10] of over 200 nM.
